We go through two molecules from patent publication US20090202574A1, “METHODS OF IMMUNE OR HAEMATOLOGICAL ENHANCEMENT, INHIBITING TUMOUR FORMATION OR GROWTH, AND TREATING OR PREVENTING CANCER” (priority 2004, published 2009).

Assay [1] deals with IL-18. The assay is described as follows: IL-18 production by cultured intestinal loops. Type of assay: cell-based, mice. The note with it: Example 20; 400 and 800 μg/ml; 48 h; vs bovine serum albumin control protein. On the procedure: Cytokine levels in the supernatants of homogenates of the small intestine were determined using a “sandwich” ELISA kit (Endogen, Woburn, Mass.). They were detected within standard curve ranges of 15-375 pg/ml for IL-4, 0-2450 pg/ml for IL-5, 15-1000 pg/ml for TNF-α, 0-3000 pg/ml for IFN-γ, 37-3000 pg/ml for IL-10, 31.3-2000 pg/ml for IL-12, and 31.3-2000 pg/ml for IL-18, respectively. Quantification of nitrite, indicative of NO production, was carried out by the Griess reaction (Sigma, USA). The results are expressed as the mean nitrite concentration (μM)±SD.
100% Fe-saturated Lf, natural Lf (less than 20% iron saturated), and bovine serum albumin control were added at 400 and 800 μg/ml to intestinal loops (2.5 cm segments of the small intestine) prepared from healthy 6 to 7 week-old female mice, which were kept in culture for 48 h. IL-18 levels released by the intestinal loops, and present in the supernatants of homogenates of the small intestine were determined using a “sandwich” ELISA kit as described above.

A further assay has as its system EL-4 target cells. The assay is described as follows: Anti-tumour CTL and/or NK cell cytolytic activity of splenocytes against EL-4 target cells. Conditions: Example 1; splenocytes at day 42; vs control diet.
The test system of another assay is EL-4 tumours. The experiment in a line: EL-4 tumour growth in mice (s.c. flank tumour model). Type of assay: in vivo, C57BL/6 mice. The note with it: Example 1; oral diet; day 42; vs control diet.
Assay [2] has as its system IL-18. Conditions: WO 03/099323, cited from earlier work.

Procedure for EL-4 target cells: Splenocytes were harvested 28 days following tumour cell injection, as specified. They were incubated at 37° C. with EL-4 target cells in graded E:T ratios in 96-well round-bottom plates. After a 4-hour incubation, 50 μl of supernatant was collected, and lysis was measured using the Cyto Tox 96 Assay Kit (Promega, Madison, Wis., USA). Background controls for non-specific target and effector cell lysis were included. After background subtraction, percentage of cell lysis was calculated using the formula: 100× (experimental-spontaneous effector-spontaneous target/maximum target-spontaneous target).

B1: natural bLf: bovine lactoferrin extract from skim milk with natural levels of iron-saturation of approximately 5 to 15% (protein, UniProt P24627 20-708, looked up)
Lactotransferrin: APRKNVRWCTISQPEWFKCRRWQWRMKKLGAPSITCVRRAFALECIRAIAEKKADAVTLDGGMVFEAGRDPYKLRPVAAEIYGTKESPQTHYYAVAVVKKGSNFQLDQLQGRKSCHTGLGRSAGWIIPMGILRPYLSWTESLEPLQGAVAKFFSASCVPCIDRQAYPNLCQLCKGEGENQCACSSREPYFGYSGAFKCLQDGAGDVAFVKETTVFENLPEKADRDQYELLCLNNSRAPVDAFKECHLAQVPSHAVVARSVDGKEDLIWKLLSKAQEKFGKNKSRSFQLFGSPPGQRDLLFKDSALGFLRIPSKVDSALYLGSRYLTTLKNLRETAEEVKARYTRVVWCAVGPEEQKKCQQWSQQSGQNVTCATASTTDDCIVLVLKGEADALNLDGGYIYTAGKCGLVPVLAENRKSSKHSSLDCVLRPTEGYLAVAVVKKANEGLTWNSLKDKKSCHTAVDRTAGWNIPMGLIVNQTGSCAFDEFFSQSCAPGADPKSRLCALCAGDDQGLDKCVPNSKEKYYGYTGAFRCLAEDVGDVAFVKNDTVWENTNGESTADWAKNLNREDFRLLCLDGTRKPVTEAQSCHLAVAPNHAVVSRSDRAAHVKQVLLHQQALFGKNGKNCPDKFCLFKSETKNLLFNDNTECLAKLGGRPTYEEYLGTEYVTAIANLKKCSTSPLLEACAFLTR
B1: the “increase in the levels of IL-18 in the intestine” value with IL-18 [1] is recorded as ~2 fold. The “anti-tumour CTL and/or NK cell activity of splenocytes” value in the assay on EL-4 target cells is “slightly enhanced”. Besides, the “inhibition in tumour size” value with EL-4 tumours was 11%.

B2: bovine lactoferrin: bovine lactoferrin as reported in WO 03/099323, compared with recombinant human lactoferrin (protein)
chain: APRKNVRWCTISQPEWFKCRRWQWRMKKLGAPSITCVRRAFALECIRAIAEKKADAVTLDGGMVFEAGRDPYKLRPVAAEIYGTKESPQTHYYAVAVVKKGSNFQLDQLQGRKSCHTGLGRSAGWIIPMGILRPYLSWTESLEPLQGAVAKFFSASCVPCIDRQAYPNLCQLCKGEGENQCACSSREPYFGYSGAFKCLQDGAGDVAFVKETTVFENLPEKADRDQYELLCLNNSRAPVDAFKECHLAQVPSHAVVARSVDGKEDLIWKLLSKAQEKFGKNKSRSFQLFGSPPGQRDLLFKDSALGFLRIPSKVDSALYLGSRYLTTLKNLRETAEEVKARYTRVVWCAVGPEEQKKCQQWSQQSGQNVTCATASTTDDCIVLVLKGEADALNLDGGYIYTAGKCGLVPVLAENRKSSKHSSLDCVLRPTEGYLAVAVVKKANEGLTWNSLKDKKSCHTAVDRTAGWNIPMGLIVNQTGSCAFDEFFSQSCAPGADPKSRLCALCAGDDQGLDKCVPNSKEKYYGYTGAFRCLAEDVGDVAFVKNDTVWENTNGESTADWAKNLNREDFRLLCLDGTRKPVTEAQSCHLAVAPNHAVVSRSDRAAHVKQVLLHQQALFGKNGKNCPDKFCLFKSETKNLLFNDNTECLAKLGGRPTYEEYLGTEYVTAIANLKKCSTSPLLEACAFLTR
modifications: Bovine Lactoferrin
notes: bovine lactoferrin as reported in WO 03/099323, compared with recombinant human lactoferrin
Take B2: the “serum levels of IL-18” value in the assay with IL-18 [2] is “did not increase”. Moreover, the “intestinal IL-18 levels” value with IL-18 [2] (compared with recombinant human lactoferrin) is “lesser increase”.
